Reference: the supplement of paper PMC7877785
± gives the uncertainty stated by the source.

Test: self-splicing fitness, log relative to wild type (ln ratio); higher = more splicing; Tetrahymena group I intron in knt gene, E. coli kanamycin selection, DiMSum; sequences stand for … in CUCUCU…GGAGGGAAAAGUUAUCAGGCAUGCACCUGGUAGCUAGUCUUUAAACCAAUAGAUUGCAUCGGUUUAAAAGGCAAGACCGUCAAAUUGCGGGAAAGGGGUCAACAGCCGUUCAGUACCAAGUCUCAGGGGAAACUUUGAGAUGGCCUUGCAAAGGGUAUGGUAAUAAGCUGACGGACAUGGUCCUAACCACGCAGCCAAGUCCUAAGUCAACAGAUCUUCUGUUGAUAUGGAUGCAGUUCACAGACUAAAUGUCGGUCGGGGAAGAUGUAUUCUUCUCAUAAGAUAUAGUCGGACCUCUCCUUAAUGGGAGCUAGCGGAUGAAGUGAUGCAACACUGGAGCCGCUGGGAACUAAUUUGUAUGCGAAAGUAUAUUGAUUAGUUUUGGAGUACUCGUGGUCG
Procedure, shortened: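 DiMSum derived fitness as the error-weighted combination of fold changes across replicates, kanamycin versus no kanamycin, normalised to wild type. E. coli BL21(DE3) held the library, which randomised all eight P1ex-region intron nucleotides within the knt kanamycin-resistance gene on pET-22b(+). Six replicate transformations grew overnight at 37°C or 30°C on LB agar with or without 25 μg/mL kanamycin, also containing 100 μg/mL carbenicillin, 50 μM IPTG and 0.2% rhamnose, and pooled colonies were amplicon-sequenced on an Illumina HiSeq 2500.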

Sequence	self-splicing fitness (ln) (30 °C)	self-splicing fitness (ln) (37 °C)
GUCCAGCAAUAUUACGAUGG	-3.74 ± 0.16	-3.37 ± 0.25
GUCCAGCAAUAUUACGCCGA	-1.78 ± 0.22	-2.03 ± 0.14
GUCCAGCAAUAUUACGCGAA	-1.21 ± 0.11	0.483 ± 0.11
GUCCAGCAAUAUUACGCGGC	-2.27 ± 0.26	-2.6 ± 0.48
GUCCAGCAAUAUUACGCUAG	-1.18 ± 0.076	-0.908 ± 0.1
GUCCAGCAAUAUUACGCUUG	-1.57 ± 0.079	-1.31 ± 0.09
GUCCAGCAAUAUUACGGCUU	-0.269 ± 0.068	0.16 ± 0.087
GUCCAGCAAUAUUACGGGCA	-2.25 ± 0.21	-1.85 ± 0.18
GUCCAGCAAUAUUACGGGCU	-2.54 ± 0.31	
GUCCAGCAAUAUUACGGGGG	-2.01 ± 0.1	-1.55 ± 0.14
GUCCAGCAAUAUUACGGUCC	-3.66 ± 0.35	-2.68 ± 0.29
GUCCAGCAAUAUUACGGUUG	-1 ± 0.067	-0.214 ± 0.091
GUCCAGCAAUAUUACGUACG	-1.58 ± 0.07	-1.14 ± 0.1
GUCCAGCAAUAUUACGUCUA	-0.899 ± 0.11	-0.668 ± 0.12
GUCCAGCAAUAUUACGUUCG	-1.26 ± 0.055	-0.749 ± 0.079
GUCGAGCAAUAUUACGAAAA		-2.58 ± 0.41
GUCGAGCAAUAUUACGAAGG	-3.61 ± 0.47	
GUCGAGCAAUAUUACGAAUG	-4.06 ± 0.35	-0.777 ± 0.2
GUCGAGCAAUAUUACGAAUU	-3.05 ± 0.32	-0.878 ± 0.19
GUCGAGCAAUAUUACGACAA	-1.97 ± 0.24	-2.85 ± 0.4
GUCGAGCAAUAUUACGAGAU		-2.45 ± 0.39
GUCGAGCAAUAUUACGAGGA		-2.44 ± 0.49
GUCGAGCAAUAUUACGAUAC	-0.265 ± 0.28	-0.381 ± 0.24
GUCGAGCAAUAUUACGCAAG	-3.6 ± 0.27	-2.71 ± 0.3
GUCGAGCAAUAUUACGCACA	-1.76 ± 0.21	-0.707 ± 0.18

Sequence	self-splicing fitness (ln) (30 °C)	self-splicing fitness (ln) (37 °C)
GUCGAGCAAUAUUACGCGCA	-0.713 ± 0.26	-1.17 ± 0.21
GUCGAGCAAUAUUACGCGUA	-1.26 ± 0.14	-0.913 ± 0.11
GUCGAGCAAUAUUACGGAUG	-1.27 ± 0.095	-0.69 ± 0.13
GUCGAGCAAUAUUACGGUAU	-1.34 ± 0.084	-0.615 ± 0.12
GUCGAGCAAUAUUACGGUCC	-3.17 ± 0.22	-0.877 ± 0.17
GUCGAGCAAUAUUACGGUUC	-2.27 ± 0.14	-1.73 ± 0.17
GUCGAGCAAUAUUACGUAAA	-2.73 ± 0.29	-0.959 ± 0.27
GUCGAGCAAUAUUACGUACG	-2.29 ± 0.26	-2.44 ± 0.41
GUCGAGCAAUAUUACGUACU	-2.83 ± 0.29	-0.966 ± 0.21
GUCGAGCAAUAUUACGUAUC	-0.209 ± 0.13	-1.42 ± 0.15
GUCGAGCAAUAUUACGUCCG	-4 ± 0.43	-0.959 ± 0.3
GUCGAGCAAUAUUACGUCGG		-2.34 ± 0.22
GUCGAGCAAUAUUACGUCUG	-3.5 ± 0.43	-2.51 ± 0.3
GUCGAGCAAUAUUACGUUAC	-3.38 ± 0.22	-1.49 ± 0.27
GUCGAGCAAUAUUACGUUUA	-2.37 ± 0.15	-1.87 ± 0.15
GUCUAGCAAUAUUACGAAAU	0.0935 ± 0.11	0.4 ± 0.1
GUCUAGCAAUAUUACGAACG	-1.83 ± 0.2	-1.13 ± 0.23
GUCUAGCAAUAUUACGACAC	-0.746 ± 0.13	-0.011 ± 0.11
GUCUAGCAAUAUUACGCGUC	-2.18 ± 0.099	-0.0852 ± 0.1
GUCUAGCAAUAUUACGCUCU	-0.178 ± 0.13	1.05 ± 0.15
GUCUAGCAAUAUUACGCUUG	-1.22 ± 0.11	-0.705 ± 0.11
GUCUAGCAAUAUUACGGAAG	-0.159 ± 0.09	0.218 ± 0.12
GUCUAGCAAUAUUACGGAUU	-1.75 ± 0.089	-0.0906 ± 0.085
GUCUAGCAAUAUUACGGCAU	-0.166 ± 0.092	0.88 ± 0.11
GUCUAGCAAUAUUACGGCUU	-0.982 ± 0.12	0.12 ± 0.14

Sequence	self-splicing fitness (ln) (30 °C)	self-splicing fitness (ln) (37 °C)
GUCUAGCAAUAUUACGGGGA	-2.08 ± 0.25	-3.16 ± 0.32
GUCUAGCAAUAUUACGGGUG	-1.28 ± 0.05	-0.553 ± 0.058
GUCUAGCAAUAUUACGGUAC	-0.985 ± 0.14	-0.625 ± 0.17
GUCUAGCAAUAUUACGGUGC	0.0594 ± 0.14	-0.142 ± 0.15
GUCUAGCAAUAUUACGGUUU	-1.42 ± 0.077	-0.192 ± 0.095
GUCUAGCAAUAUUACGUAAC	-0.708 ± 0.13	-0.195 ± 0.13
GUCUAGCAAUAUUACGUACA	-0.922 ± 0.1	-0.376 ± 0.1
GUCUAGCAAUAUUACGUAUU	-0.645 ± 0.086	-0.635 ± 0.095
GUCUAGCAAUAUUACGUUGG	-3.01 ± 0.15	-1.86 ± 0.14
GUGAAGCAAUAUUACGAACC	-3.05 ± 0.29	
GUGAAGCAAUAUUACGACGG	-0.531 ± 0.12	-0.418 ± 0.23
GUGAAGCAAUAUUACGACUG	-1.37 ± 0.09	-0.924 ± 0.14
GUGAAGCAAUAUUACGAGAC	-2.62 ± 0.19	-0.955 ± 0.12
GUGAAGCAAUAUUACGAGCG	-0.702 ± 0.087	0.396 ± 0.12
GUGAAGCAAUAUUACGAUAC	-0.501 ± 0.11	-0.461 ± 0.14
GUGAAGCAAUAUUACGAUAG	-2.11 ± 0.19	-0.681 ± 0.18
GUGAAGCAAUAUUACGCAGG	-1.88 ± 0.1	-0.654 ± 0.1
GUGAAGCAAUAUUACGCCCC	-0.362 ± 0.33	
GUGAAGCAAUAUUACGCCCG	-0.347 ± 0.39	-0.026 ± 0.42
GUGAAGCAAUAUUACGCGCC	-4.14 ± 0.33	-2.69 ± 0.41
GUGAAGCAAUAUUACGCUAG	-0.945 ± 0.14	0.0205 ± 0.23
GUGAAGCAAUAUUACGCUGU	-2.74 ± 0.13	-1.29 ± 0.12
GUGAAGCAAUAUUACGGAAU	-1.06 ± 0.18	-0.308 ± 0.18
GUGAAGCAAUAUUACGGAGA	-2.03 ± 0.32	-1.19 ± 0.47
GUGAAGCAAUAUUACGGCGA	0.0822 ± 0.15	0.297 ± 0.18

Sequence	self-splicing fitness (ln) (30 °C)	self-splicing fitness (ln) (37 °C)
GUGAAGCAAUAUUACGGUAU	-1.47 ± 0.076	-0.418 ± 0.1
GUGAAGCAAUAUUACGGUGA	-0.922 ± 0.11	0.58 ± 0.14
GUGAAGCAAUAUUACGUACG	-0.64 ± 0.16	0.312 ± 0.15
GUGAAGCAAUAUUACGUCCG	-0.484 ± 0.15	-0.103 ± 0.17
GUGAAGCAAUAUUACGUCCU	-0.476 ± 0.12	0.382 ± 0.18
GUGAAGCAAUAUUACGUCUG	-1.29 ± 0.12	-0.0242 ± 0.2
GUGAAGCAAUAUUACGUGGC	-2.6 ± 0.14	-2.41 ± 0.23
GUGAAGCAAUAUUACGUGUC	-2.89 ± 0.11	-1.83 ± 0.12
GUGAAGCAAUAUUACGUUGC		-1.92 ± 0.46
GUGAAGCAAUAUUACGUUUA	-1.01 ± 0.064	-0.109 ± 0.11
GUGCAGCAAUAUUACGAUAA	-2.55 ± 0.16	-1.04 ± 0.13
GUGCAGCAAUAUUACGAUAU	-0.385 ± 0.091	-0.244 ± 0.12
GUGCAGCAAUAUUACGAUCG	-1.95 ± 0.12	-1.45 ± 0.1
GUGCAGCAAUAUUACGCCAG	-2.82 ± 0.47	
GUGCAGCAAUAUUACGCGUC	-3.39 ± 0.3	-1.4 ± 0.21
GUGCAGCAAUAUUACGCUAA	-0.546 ± 0.17	0.418 ± 0.15
GUGCAGCAAUAUUACGCUAU	-2.36 ± 0.15	-1.14 ± 0.12
GUGCAGCAAUAUUACGGCGU	-1.58 ± 0.096	-1.93 ± 0.17
GUGCAGCAAUAUUACGGGGU	-2.79 ± 0.22	-2.19 ± 0.24
GUGCAGCAAUAUUACGGUUA	-0.723 ± 0.092	-0.164 ± 0.089
GUGCAGCAAUAUUACGGUUU	-0.309 ± 0.062	-0.000827 ± 0.076
GUGCAGCAAUAUUACGUACC		-2.41 ± 0.32
GUGCAGCAAUAUUACGUACU	-2.7 ± 0.39	-0.869 ± 0.38
